The assay concerns the target T1, Frq1 (S. cerevisiae, UniProt Q06389 1-190).
T1 sequence (looked up): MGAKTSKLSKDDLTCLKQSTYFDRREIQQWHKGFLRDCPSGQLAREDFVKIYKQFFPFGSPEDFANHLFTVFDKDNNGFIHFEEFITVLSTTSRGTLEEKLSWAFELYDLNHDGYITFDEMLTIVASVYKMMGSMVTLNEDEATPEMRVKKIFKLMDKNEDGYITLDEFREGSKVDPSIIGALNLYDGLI
As to the kind of experiment: SEC. In general terms: SEC sorts molecules by how far they enter the pores of the column.

B1: Pik1(121-174) peptide (peptide, UniProt P39104 121-174, looked up)
peptide: ASYGFQVARRVLNNLQTNLFNTSSGSDKNVKIHENVAPALVLSSMIMSAIAFPQ
Take B1: the binding result is reported as “binds”.

The values are drawn from paper PMC8101487 (Molecular Biology of the Cell, 2021).
